PMC7907217 (Biochemistry and Biophysics Reports, 2021)
Several values for one entry are separate records, joined by “and”; a condition that tells them apart may be missing. Identical values can stand only once.

How the values were obtained:
3D7 PfAMA1 (DI + DII) [1] = target: T1, 3D7 PfAMA1 (DI + DII) (Plasmodium falciparum 3D7, UniProt Q7KQK5 104-438); experiment: ITC
T1 sequence (looked up): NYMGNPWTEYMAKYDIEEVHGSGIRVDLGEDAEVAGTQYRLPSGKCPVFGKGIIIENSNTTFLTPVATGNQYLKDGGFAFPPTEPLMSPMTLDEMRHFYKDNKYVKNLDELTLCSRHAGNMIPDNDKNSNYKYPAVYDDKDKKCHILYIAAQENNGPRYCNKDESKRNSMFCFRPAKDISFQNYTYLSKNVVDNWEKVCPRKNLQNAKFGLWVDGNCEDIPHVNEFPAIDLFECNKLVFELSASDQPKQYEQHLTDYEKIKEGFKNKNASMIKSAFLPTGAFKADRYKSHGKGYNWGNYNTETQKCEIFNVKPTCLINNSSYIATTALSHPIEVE

3D7 PfAMA1 (DI + DII) [2] = target: T1, 3D7 PfAMA1 (DI + DII); experiment: SPR

Binder: DITQQAKDIGAGPVASCFTTRMSPPQQICLNSVVNTALS (peptide, UniProt Q8IKV6 2021-2059, looked up) [PfRON2ed peptide (Asp2021-Ser2059)]
- Kd (3D7 PfAMA1 (DI + DII) [1]): 122 nM and 93.5 to 137 nM
- Kd (3D7 PfAMA1 (DI + DII) [2]): 21.9 ± 1.89 nM
